# Measurements published in patent US20040157296A1 (HESKA, published 2004).
# T1: Human CTLA4 Fc chimeric protein (human, UniProt P16410 37-162, limits assumed)
# T1 construct: Bought from R&D Systems; Used at about 20 ug/ml; also called recombinant CTLA4 protein; not shown: human IgG Fc (detected with mouse anti human IgG Fc FITC)
# T1 sequence (looked up): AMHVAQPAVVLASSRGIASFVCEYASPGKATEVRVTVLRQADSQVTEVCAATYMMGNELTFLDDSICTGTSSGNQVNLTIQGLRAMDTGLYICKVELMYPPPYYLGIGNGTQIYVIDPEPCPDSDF
# B1: feline B7-2 protein expressed on L-pCMV-nFeB7-2999 recombinant L cells (PFeB7-2332) (ligand)
# chain: VSSMKSQAYFNKTGELPCHFTNSQNISLDELVVFWQDQDKLVLYEIFRGKENPQNVHLKYKGRTSFDKDNWTLRLHNVQIKDKGTYHCFIHYKGPKGLVPMHQMSSDLSVLANFSQPEITVTSNRTENSGIINLTCSSIQGYPEPKEMYFQLNTENSTTKYDTVMKKSQNNVTELYNVSISLPFSVPEAHNVSVFCALKLETLEMLLSLPFNIDAQPKDKDPEQGHFLWIAAVLVMFVVFCGMVSFKTLRKRKKKQPGPSHECETIKRERKESKQTNERVPYHVPERSDEAQCINILKTASGDKSTTHF
# notes: also called PFeB7-2309 (mature)
# Molecular target: T1, Human CTLA4 Fc chimeric protein
# Assay: flow cytometry on L cell transfectants
# Protocol: Recombinant cells L-pCMV-nFeB7-2₉₉₉, and L-pCMV-nFeB7-1₈₇₉, produced as described in Example 8, were tested for surface expression of feline B7-1 or B7-2 by determining if human CTLA4 will bind. Briefly, 1×10⁵ (per condition) L-pCMV-nFeB7-2₉₉₉ or L-pCMV-nFeB7-1₈₇₉ cells or, as a negative control, L cells transfected with the empty pCMV vector and the PMLBKTK plasmid (L-CMV) were incubated in phosphate buffered saline (PBS) containing 30% fetal bovine serum (FBS) for about 30 min on ice. The cells were then spun down and treated with the following:
# Human CTLA4 Fc chimeric protein, available from R&D systems, Minneapolis, Minn., was used at about 20 μg/ml. Mouse anti human IgG Fe FITC, available from Sigma, was used at about 65 μg/ml. These reagents were diluted in PBS/5% FBS. All incubations were performed in about 100 μl for about 1 hr on ice with 3 washes of PBS/5% FBS in between each incubation. Cells were then analyzed on a flow cytometer (MoFlow Desk Top System, Cytomation, Ft Collins, Colo.) with the fluorescein gate set at 10¹.
binder,measurement,value
B1,binding result,binds
